Reference: publication PMC11933065, “Characterization of FosA13, a novel fosfomycin glutathione transferase identified in a Morganella morganii isolate from poultry” (Frontiers in Cellular and Infection Microbiology, 2025)

Tested on: C[C@@H]1O[C@@H]1P(=O)(O)O
Experiment: HPLC, initial rates, Michaelis-Menten fit
Type: biochemical, Morganella morganii
Conditions: 10 mM GSH, 250 µM MnCl2, 100 mM KCl, 100 mM Tris-HCl, 37 °C, fosfomycin 0-800 µM, printed unit µM conflicts with printed kcat/Km (1.50 × 10^4 M^-1 s^-1), which implies mM

FosA13 (Morganella morganii subsp. morganii KT)
kcat: 6.43 ± 0.04 s⁻¹
